This assay deals with T1, Recombinant NT antigen (N-terminal pro-brain natriuretic peptide, NT-proBNP) (human, UniProt P16860 27-102).
T1 construct: domain: N-terminal pro-brain natriuretic peptide (NT-proBNP); also called recombinant NT protein; N-terminal pro-B-type natriuretic peptide
T1 sequence (looked up): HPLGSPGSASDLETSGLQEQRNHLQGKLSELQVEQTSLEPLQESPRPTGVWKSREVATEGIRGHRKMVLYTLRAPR
Nature of the assay: indirect ELISA, KD calculated from half-max OD at 4 coating concentrations. In a few lines:
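Plates coated overnight at 4 °C with recombinant NT antigen at 3, 1.5, 0.75 or 0.375 μg/ml, blocked with 20% BSA. Antibody, 2-fold dilutions from 1000 to 0.977 ng/ml, was incubated 30 min at 37 °C, then detected with HRP anti-IgG, OD450/630. KD was derived from half-max OD across coating levels.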

B1: Mutation 1-53 (antibody)
heavy: QVRLQESGPSQVKPAQTLSLTCAISGFSVTTYYVDWVRHTPGKPPEWLAQMTKDGNAVHNPTVRSRLSITRDTSKSQVFLKLTGVTTEDTAVYYCVRGVIDFGPGLLVTVSSASTTPPKVYPLTSCCGDTSSSIVTLGCLVSSYMPEPVTVTWNSGALTSGVHTFPAILQSSGLYSLSSVVTVPASTSGAQTFICNVAHPASSTKVDKRVEPGCPDPCKHCRCPPPELPGGPSVFIFPPKPKDTLTISGTPEVTCVVVDVGQDDPEVQFSWFVDNVEVRTARTKPREEQFNSTFRVVSALPIQHQDWTGGKEFKCKVHNEGLPAPIVRTISRTKGQAREPQVYVLAPPQEELSKSTLSVTCLVTGFYPDYIAVEWQKNGQPESEDKYGTTTSQLDADGSYFLYSRLRVDKNSWQEGDTYACVVMHEALHNHYTQKSISKPPGK
light: QAVLTQPSSVSRSLGQTVSITCSGSSDNVGFGDYINWFQLIPGSAPKTLIFGAYSRVRGVPDRFSGSRSGNTATLTINSLQAEDEADYYCGSGNSRNYVFGSGTRLTVLSQPKSAPSVTLFPPSKEELDTNKATVVCLISDFYPGSVNVVWKADGSTINQNVKTTQASKQSNSKYAASSYLTLTGSEWKSKSSYTCEVTHEGSTVTKTVKPSECS
Usually Kd stands for a measure of binding affinity in units of concentration. As to B1, the Kd was 2.06 nM.

Source of the values: patent US20220025008A1 (FAPON BIOTECH, published 2022).
